This note sets out measurements from paper PMC12880088.

The series addresses T1, rYeiE (YeiE-Strep-tag II) (Salmonella enterica serotype Typhimurium ATCC14028s) (UniProt Q8ZNK8).
T1 sequence: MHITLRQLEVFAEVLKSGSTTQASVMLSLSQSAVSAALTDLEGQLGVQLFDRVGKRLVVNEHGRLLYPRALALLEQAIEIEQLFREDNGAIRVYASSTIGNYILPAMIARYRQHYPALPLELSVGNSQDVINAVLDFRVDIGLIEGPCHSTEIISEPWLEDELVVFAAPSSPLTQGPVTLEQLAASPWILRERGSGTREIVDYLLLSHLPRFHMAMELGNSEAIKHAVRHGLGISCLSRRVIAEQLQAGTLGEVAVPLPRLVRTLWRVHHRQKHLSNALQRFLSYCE
Kind of series: EMSA. Conditions: 150 mM KCl, 0.1 mM DTT, 0.1 mM EDTA, 10 mM Tris pH 7.4, 20 min at room temperature; 6% native PAGE, SYBR Green. On the technique in general: Mobility shift assays separate free from complexed probe on a gel.

As for “GTTGAACCGCTTTTCAGTACTTCAGCAAACACTTCAAGTTGTCGTAGCGTAATATGCATAGTCGTATCCCACCGATAGCGTTTCACTTACCACTTATAAAGATTAATTATAAATATATAATCAATTTTATTTTTAAACCAGATCACCGTAACCTTATTGTCCATATACAGGAGAAGGTTATGACAGAACTCACCTTGCAGAATCATCGTCGTACAATGTGGCATTTTATACCGGGGCTCGCTCTGAGCGCCGTCATTACAGGAGTCGCCCTGTGGGGCGGCGCTATCCCTGCCGTTGCA (double strand) [PyeiE]”, the binding result is “binds”.
